Test results taken from article PMC12474313.

Biological target: rRABV-G-XVIII (rabies virus glycoprotein ectodomain fused to the human collagen XVIII trimerization domain) (rabies virus strain CVS-11 | human)
Assay: SEC

With “rRABV-G-XVIII (rabies virus glycoprotein ectodomain fused to the human collagen XVIII trimerization domain)” the percent trimeric protein was 96.3% and the stoichiometry N was 3.
